Test results as given in the DeepSol protein solubility set.

Experiment: soluble on expression in E. coli; label from the status in PepcDB or PDB records

**Q.** For “MGSDKIHHHHHHMSAPPLCVTVCGGGRTGHLNAILFAQRPGVRVKLLTRNHHIAARQDAVLTGLLPDGATLTASAGMVTDDPAVALRDADIVIITVPAHARPSLLREIVAHLPEGKAVYVGAIPGFCGFDWLAGALLAQRPNAVIWGMKDVPHTAFALDPGVSVRMGGVKQRLYVGCHAREQRAARQALLSHLNRLYDASVELLDSYLEITLTPGNPIMHSAVIYGLIGPYGQWHGRALPTPLCWWTDCPELSAYFLERADEESQRLCQAVARRLGVDLSSVKPLRQEIVDAYGDQIQDPSTMLSVLRTNRAYADIEAPLVPTSGGYLVDTSSRAFHEDVAYGLATLVEMARRLGVDTPHLREIFEWNVTYMGGLRGSALDYFPEFWPR”, which “soluble on expression in E. coli” value is on record?
**A.** The value was “not soluble”.

**Q.** With “MVLAERDDRLLGFASFRRTEDFAHYQPQRADAPRAYICEAVVHPAAAGQGLGSALLEAVLAQLADEGIEDVYIDRHEENLASAGMMRKAGFV” as the sequence, how does the “soluble on expression in E. coli” value read?
**A.** The value was “soluble”.

**Q.** For “MGSDKIHHHHHHMKKTIYKVLVSFYQYVGLGKKFHPSHDTVLIIGGSSNELGIELCETFIEDYHTKVINIDTIDSINGKNARRSEKLYTFISCKDFSDIKCLEESMLYLQNLEIIPTVLINNMQEGIESTLLKEDKFLRLDEESLNEFEKIVRYNLQSVILITKFCLSNIFPKVQAEAQEKAKGFYIVNISSVLTLKPCKSGTHFITSKCGINSFHDGITSELKLKDSNLNVKTLIAYLPSFESEAHWKRLSPSISKHLVHCLLEGRYGDTILESKRSIGDILLITGFKSSFT”, which “soluble on expression in E. coli” value is on record?
**A.** The value was “not soluble”.

**Q.** With “EIFSQELTQREANVKKVHENLEELQKKLDHTSFAHKEDRDRLEAQIAQKEQEQKAKLAEYDQKVQNEFDARERAEREREAARGDAAAEKQRLASLLKDLEDDASGYNRLRPSKPMLSEEDTNILRQLFLSSAVSGSGKFSFQDLKQVLAKYADTIPEGPLKKLFVMVENDTKGRMSYITLVAVANDLAALVADFRKIDTNSNGTLSRKEFREHFVRLGFDKKSVQDALFRYADEDESDDVGFSEYVHLGLCLLVLRILYAFADFDKSGQLSKEEVQKVLEDAHIPESARKKFEHQFSVVDVDDSKSLSYQEFVMLVLLMFHDD” as the sequence, how does the “soluble on expression in E. coli” value read?
**A.** Its value is “soluble”.

**Q.** With “MKALITAADIKKASETPEKILTISEADLITPAARDAAKELGVQITAHPVSLPPTVAPSPAFSPASPLDPALVSRIIEEVMVCLNRSGSPAQPQKEADPGGLRIVKGNSLILEDFATGNPRDQIKIKELFNKKECPLYSAGIMALDKTSYSLTPARDELNYIIEGTLECCIDNRCYTAQAGDTLYIPAQAKIILTAADKVKLFYVC” as the sequence, how does the “soluble on expression in E. coli” value read?
**A.** The value was “not soluble”.

**Q.** Which “soluble on expression in E. coli” value does the source give for “MKIRALLLALGMATVLTGCQNMDSNGLLSSGAEAFQAYTLSDAQVKALSDQSCQELDSKAKIAPASSEYTKRLAKIAAALGDNINGQPVNYKVYETKDVNAFAMANGCIRVYSGLMDMMTDNEVEAVIGHEMGHVALGHVKKGMQVALGTNAVRVAAASAGGVVGSLSQSQLGDLGEKLVNSQFSQRQESEADDYSYDLLRKRGISPAGLATSFEKLAKLEAGRQSSMFDDHPASAARAQHVRDRMSADGIKLEHHHHHH” here?
**A.** Its value is “soluble”.

**Q.** Which “soluble on expression in E. coli” value does the source give for “GHHHHHHHHHHSSGHIEGRHMKRMIALDGAQGEGGGQILRSALSLSMITGQPFTITSIRAGRAKPGLLRQHLTAVKAATEICGATVEGAELGSQRLLFRPGTVRGGDYRFAIGSAGSCTLVLQTVLPALWFADGPSRVEVSGGTDNPSAPPADFIRRVLEPLLAKIGIHQQTTLLRHGFYPAGGGVVATEVSPVASFNTLQLGERGNIVQMRGEVLLAGVPRHVAEREIATLAGSFSLHEQNIHNLPRDQGPGNTVSLEVESENITERFFVVGEKRVSAEVVAAQLVKEVKRYLASTAAVGEYLADQLVLPMALAGAGEFTVAHPSCHLLTNIAVVERFLPVRFSLIETDGVTRVSIE” here?
**A.** The value was “soluble”.

**Q.** Which “soluble on expression in E. coli” value does the source give for “MGSDKIHHHHHHLEAGMNYGVWNNKGGVGKSFLSFTLALEHAHRHPERKILLADMCPQANLSEIILGGNGKGNANLEARLAQDKRKTIGGYFDERIASPHQVTGNETSYLIAASDYNQELPDNVYLLCGDPSLELQAQVINQIGSQTLPADAWKNVHMWLKDLINACARQLGREGTSVFIDCNPSFSAYTELAIVASDRLILPCSCDGSSARAVHNVENLVFDGSAYYGDKSFSKMCERFGMALPVIHSVVLNRSTLYNKDASKAFSAMFDEIKRTANDFYKRSPGSFVAGGPAFMVMPDNHSVAIVSSHLGKPLYAIKPGKYQVYEVNPQINPEPLNRYKEAIEGMEAVLL” here?
**A.** The value was “not soluble”.

**Q.** With “MGSDKIHHHHHHMSWHNKVVWSEGLFLRPQLFQQQERYLEHYAHRRAATLSPFFFGFSHYSLDSEALALGKVIVKSASGVFADGTPFDTPGSTPPPAPLTIRAEHLDQLIYLAVPVRVPNAEETTFDNAADSLARNFVFDTELRDTNSIGQGPKTVQLSNLRLRLVPEKELTDAWIGLALTRVKTIRADSSIVLDDTLIPPVAGFGASELLTSWLAKIHELTRLRANSLAIRLTGANGNAGTTAEVSDYLLLQTLNRYEPLLQHLRRVPTTSPADLYALLLSMAGELSTYLRTDSRRPLDSHPAYQHSTPHLCLKPLVDDTHVLLNAVLVRSAQSIELKELGHGMRNAVVDPVDMAGFTAVVLAVHAAMPPDLLQQQFAAQAKAGPSERLPDLVRGHLPGITLQALPVPPRQIPFNAGFVYYELARSGPLWDEVARHGGLALHVAGEFPSLKLELWGVRS” as the sequence, how does the “soluble on expression in E. coli” value read?
**A.** Its value is “not soluble”.

**Q.** With “MGSDKIHHHHHHLSPEDYYGSNDFWNQKSQVEMFMTGIHADLRDKYQMPVTLGEFRSEILISDVTSMGEGVYGPPMTNNLLTKDNTGIDDWYEVYPNIMHINLFIRNVDKEIDYLTGTEKSFYLGQAYGLRAYYYFYLYRTFGGVPLETEPKVTEGSIDITQLYKARSTPEETLEFIKEDINKSEAFFNESDKKMSNQYEWSYHATELLKAKIYMWSAKVTTGLPDDDIAGDHIATLTAVDPNNSDLLTAKKALLNLVNQQFELLPNFADLWTPEGKKNKEIIFALCFNKNELTNWGANWFYNVALFTNATDLDGNKYGPDPLKLLTAGPLRYEYKVPFIEIYDKEDTRLDATFFQYMFEGKIRGACWKKLMGHTDGGTHYYDSDVPVYRYADVLLMLAECENGLGAPDKCAAYINEVRKRAYGDKFEQHKYIAGDYADNEWAILQERDKEFVGEGSRWFDLLRLRDSNGKPFVFSVKAHYGSSLPILTEDKAYMMLWPVNVEVLNGDPEIKQTPGYE” as the sequence, how does the “soluble on expression in E. coli” value read?
**A.** The value was “not soluble”.

**Q.** For “MSLKPVIGITGNRLVKGVDVFYGHRVTYTQQRYVDAIQKVGGFPIALPIDDPSTAVQAISLVDGLLLTGGQDITPQLYLEEPSQEIGAYFPPRDSYEIALVRAALDAGKPIFAICRGMQLVNVALGGTLYQDISQVETKALQHLQRVDEQLGSHTIDIEPTSELAKHHPNKKLVNSLHHQFIKKLAPSFKVTARTADGMIEAVEGDNLPSWYLGVQWHPELMFQTDPESEQLFQALVDESKKTMVKEGHHHHHH”, which “soluble on expression in E. coli” value is on record?
**A.** Its value is “soluble”.

**Q.** For “MTVQTSKNPQVDIAEDNAFFPSEYSLSQYTSPVSDLDGVDYPKPYRGKHKILVIAADERYLPTDNGKLFSTGNHPIETLLPLYHLHAAGFEFEVATISGLMTKFEYWAMPHKDEKVMPFFEQHKSLFRNPKKLADVVASLNADSEYAAIFVPGGHGALIGLPESQDVAAALQWAIKNDRFVISLCHGPAAFLALRHGDNPLNGYSICAFPDAADKQTPEIGYMPGHLTWYFGEELKKMGMNIINDDITGRVHKDRKLLTGDSPFAANALGKLAAQEMLAAYAGLEHHHHHH”, which “soluble on expression in E. coli” value is on record?
**A.** The value was “soluble”.

**Q.** For “GPGSMEDPVRCECQKHAQDDGYSQGELLPLTAFRQVEKRYKLYRYDRRTSRRLQVPETDFSDVVDFRNLEANTAANLACISTRECHEDDRLVKCCTFAGVPGMEVFPNFLTDAEQQEFCRAALLEYGDSRRHPNHLSTHASEPRETTRYEPPMRWATVGFSYQWSSKSYCKEKYSHFPRRLRKCVERIARLCNVSQPYEPQTSIVNYFPVGAMMMAHQDVSEEVLQQPLISISLGCSCVFLMGTESRDDTPCAFWLRSGDVIVVSGASRTAYHGVPRIMDDCPQYLCPQNETEEEEGEFYWREQMRHLRVNINVRQVYPDRCEFLNE”, which “soluble on expression in E. coli” value is on record?
**A.** Its value is “not soluble”.

**Q.** With “MGSDKIHHHHHHMAILQLGMAFDADAFSASVIGIAADVGSHDSGVHRHGKGQLLYAPQGCITFAWEDAIGILPPTKAVWIPPHTPHRAVMTNVVAYRSLYFDCSRIVAPASVTMVDVNPLLKALIDKMAFWPWDTPEASMTHSCALFWEEFYAARCHSFRLTIPVDRRFHGFRQQLFRPEFLPPDIDSLAATIGASTKTVTRLFKRDTGMSYQEWRQQWRLLKAIELLSGALPVSEVGFRLGFSSDSAFIAFFRKQTGKTPRHFMQG” as the sequence, how does the “soluble on expression in E. coli” value read?
**A.** The value was “not soluble”.

**Q.** For “MRHPDFPVPPRIDAFASWEASLRLAFARRGGRTVLASCRHRGPLRVQKALYPEGEGVCHVVLLHPPAGIAGGDVLDIGIELGAEAHAVLTTPGATKWYKSPGRTAMQQVAIRLDAGARLDWLPQENIVFNQARPVIDLTLDLAPGAAAIGWDITMLGRHAAGESWQEGRIAMHTRLRCEGQPLWIESTAFDAQSPVLGATTGMAGFHVVGTLWAVGAGATEALAETLAEQLPYRDDLRAGVTCLTQDAPGRPSVLLLRVLARRPEDARALLSQTWLALREPIHGVAGRPLRLWATLEHHHHHH”, which “soluble on expression in E. coli” value is on record?
**A.** The value was “not soluble”.

**Q.** With “MGSDKIHHHHHHMIVETMTMVEFEEGLKRTRTVFVPFGSVEEHGCHLPLSTDTIQAYEVGKKAALQISLFVAPPIHYGSCRSTSCHPGTISITTATLKCLMKDIVRSLYAQGMRNFIILTGHAGGSHRMALQDAGEELLPEIPDIRIAVVTEYELASREGKGIIETEGDAHAGEIETSRILHTHPHLVQGRGEREFPSFPTGILVRNKRKYWPNGVWGDPAKATAEKGKRLEELVVKKIVELAAALEQFQE” as the sequence, how does the “soluble on expression in E. coli” value read?
**A.** The value was “not soluble”.

**Q.** Which “soluble on expression in E. coli” value does the source give for “MGSDKIHHHHHHMTELLARNADCIVWLARYMERAENLARILGVAETFARDRAGRNWLAVVQINADEERFFARHRVADARTVPHFYILDPDNPNSILSSIKAARENARTLRPMISIEMWRQINRMNTWMGGLSDNAVAPANLAALCEEIKEACQLHVGITEGTFYRDQAHYFYHLGKSIERADQTTRLLDIKYHTLLPRPEDVGSALDISHWNALLKAVAGYQASRRVLAGKITPRSVAAFLLFSDSFPRSVILCVRQMDWLMTQLRTRYHLRGGVKALELLDGLRAALTDHDIDHVIDHGLHEFIDWVQSQLMAIFAEIQDSFCVTRQPSQSQSQ” here?
**A.** The value was “not soluble”.

**Q.** Which “soluble on expression in E. coli” value does the source give for “MSLKQIVGHKLLNDVIRPLKKGDGRSAWNVLIVDTLAMRMLSSCCKMHNIMEEGITIVEDLNKRREPLPTLEAIYLIAPTAESIDKLIQDYCARNLYKCAHVFFTEACSDQLFSTLSKSAAARFIKTLKEINIAFTPYESQVFNLDSPDTFFLYYNAQKQGGLTSNLERIAEQIATVCATLGEYPSLRYRADFERNVELGHLVEQKLDAYKADDPSMGEGADKARSQLIIIDRGYDAITPLLHELTLQAMCYDLLGIENDVYKYETGGSDENLEKEVLLDENDDLWVEMRHKHIAVVSQEVTKNLKKFSESKGNKGTMDSKSIKDLSMLIKRMPQHKKELNKFSTHISLAEECMKQYQQGVDKLCKVEQDLSTGIDAEGERVRDAMKLMVPLLIDPAVRCEDRLRLILLYILSKNGITDENLNKLLQHANISMADKETITNAAYLGLNIVTDTGRKKTWTPTKKERPHEQVYQSSRWVPVIKDIIEDAIDERLDTKHFPFLAGRQVNQGYRAPASARYGQWHKERGQQSNYRSGPRLIIYIIGGVTFSEMRACYEVTAARKPWEVVIGSDRIITPDKFLTNLRDLNKPRDI” here?
**A.** The value was “not soluble”.

**Q.** Which “soluble on expression in E. coli” value does the source give for “MIGVGKMKQYSNVLDKPLSKGKQEVSLTAFAFLFSELVQYNQTQVDNIAELERRLEDAGYAVGSRVLELLCNREKGNRRETRLLGILSFVHSTVWKVLFGKVADSLEKGTEHEDEYMISEKELLVNRFISIPKDMGTFNCGAFVAGIVKGVLDNAGFPAVVTAHFVPIEGQQRPRTTILIKFADEVLKREARLSQ” here?
**A.** The value was “soluble”.
